US11643691B2, “Predictive biomarkers for cancer immunotherapy and methods of using same” (Duke University, priority 2018, dated 2023)

Assays:
DCs = assay: qRT-PCR / qPCR array / immunoblot gene expression in DCs; assay type: cell-based, Murine
Protocol: Dendritic Cell Conditioning: DCs were treated with Wnt3a (100 ng/mL), Wnt5a (200 ng/mL), LPS (1 μg/mL), 1-MT (1 mM), 2DG (1 mM), or ETO (100 μM), 2-DG(2-deoxy-d-glucose, 1 mM), Oligomycin (1 μM), succinylacetone (250 μM), […]
(§1) Antibodies, Immunoprecipitation, and Immunoblot Analysis: Primary antibodies including CPT1A (Cell signaling), PPAR-γ (Santa Cruz Biotechnology), β-catenin, β-actin (Millipore), p-AMPK(T172)/AMPK (Cell signaling), p-AKT(T308)/Akt (Cell Signaling) were used at 1:1000. Secondary antibodies including goat anti-rabbit IgG-HRP (Millipore) and goat anti-mouse IgG-HRP (Millipore) were used at 1:5000. Cells were lysed in Laemmli sample buffer after treatment and subjected to SDS-polyacrylamide gel electrophoresis and immunoblot analysis. For immunoprecipitation, cells were lysed in radio immunoprecipitation assay (RIPA) buffer [10 mM sodium phosphate (pH 8.0), 150 mM NaCl, 1% Triton X-100, 1% sodium deoxycholate, and 0.1% SDS in the presence of 1 mM DTT, 1 mM phenylmethylsulfonylfluoride, and a protease inhibitor cocktail (Sigma)], precleared with protein A beads, and then incubated with 1 μg of antibody against β-catenin or isotype control IgG with protein A-agarose beads on a rotator overnight at 4° C. After 3 washes with RIPA buffer, immunoprecipitated complexes were eluted in sample buffer by boiling and subjected to immunoblot analysis. Immunoblots were visualized by chemiluminescence substrate (ThermoFisher) and imaged by a ChemiDoc XRSplus system (BioRad).
RNA Isolation, RT-qPCR, qPCR Array: Total RNA was isolated by RNeasy Plus Mini Kit(Qiagen). RNA(500 ng) were used in cDNA Synthesis (iScript, BioRad). Quantification of mRNA for genes involved in PPARγ signaling was performed using Mouse PrimePCR PPAR Array according to the manufacturer's protocol (BioRad). Real-time PCR was performed using an ABI7500 Real-Time PCR system (Life Technologies). Data analysis utilized the PrimePCR Analysis Software (BioRad). Conventional qPCR was performed using validated primers, and SsoAdvanced Universal SYBR Green Super mix (BioRad) or Taqman probes (Applied Biosystems) for heme synthesis enzymes.

[1] = tested on: CD8+ T cell proliferation; assay: T cell proliferation assay (CellTrace Violet dilution, OT-1 splenocytes with conditioned DCs); assay type: cell-based, mice; conditions: DCs pre-treated, LPS stimulated
Protocol: T Cell Proliferation Assay: Splenocytes of OT-1 mice (H-2b) were isolated and stained with CellTrace Violet (ThermoFisher). Preconditioned DCs were loaded with ovalbumin peptide SIINFEKL, and co-cultured at a DC:splenocyte ratio of 40,000:120,000 cells for 72 hrs. CD8+ T cell proliferation was measured by the dilution of Cell Trace Violet dye by flow cytometry.

DC IDO = assay: IDO enzymatic assay (kynurenine in conditioned media by HPLC); assay type: cell-based, Murine; conditions: purified DC cultures or tumor-infiltrating DCs
Protocol: IDO enzymatic assay and Hemin assay: DC IDO enzyme activity was measured by the conversion of L-tryptophan to L-kynurenine in conditioned media by HPLC (Pallotta et al., 2011). Intracellular hemin was measured using a colorimetric assay kit (BioVision).

AMPK = assay: Thr-172 phospho-AMPK immunoblot analysis of DCs; assay type: cell-based, Murine; conditions: Wnt5a 200 ng/mL, 24 and 48 hrs
From the text: as §1, with “Data is representative of 3 independent experiments. […] Data is representative of 3 independent experiments. […] Antibodies,” for “Antibodies,”

B1: Wnt5a: Recombinant Human/Mouse Wnt5a Protein (R&D Systems) (protein, UniProt P41221 62-380, looked up)
Protein Wnt-5a: IIGAQPLCSQLAGLSQGQKKLCHLYQDHMQYIGEGAKTGIKECQYQFRHRRWNCSTVDNTSVFGRVMQIGSRETAFTYAVSAAGVVNAMSRACREGELSTCGCSRAARPKDLPRDWLWGGCGDNIDYGYRFAKEFVDARERERIHAKGSYESARILMNLHNNEAGRRTVYNLADVACKCHGVSGSCSLKTCWLQLADFRKVGDALKEKYDSAAAMRLNSRGKLVQVNSRFNSPTTQDLVYIDPSPDYCVRNESTGSLGTQGRLCNKTSEGMDGCELMCCGRGYDQFKTVQTERCHCKFHWCCYVKCKKCTEIVDQFVCK
IL-6 and IL-12 expression in primary DCs (DCs; qRT-PCR): suppresses IL-6 and IL-12 expression in primary DCs
expression of Alas1 and further enzymes of PpIX synthesis (DCs; qRT-PCR): upregulated expression of Alas1 and several additional enzymes involved in PpIX synthesis
expression of TCA cycle enzymes (Idh1, Idh2, Oghd, Dld, Dlst) (DCs; qRT-PCR): stimulated the expression of isocitrate dehydrogenase
expression of hexokinase (Hk) and phosphofructokinase-1 (Pfk1) (DCs; qRT-PCR, after 4-8 hr of stimulation): downregulated the expression of the rate-limiting glycolytic enzymes
PPAR-γ (Pparg) and CPT1A (Cpt1a) expression (DCs; real-time qPCR and immunoblot, murine and human DCs for rWnt5a): induces upregulation of Pparg and Cpt1a
LPS-induced DC-mediated antigen-specific T cell proliferation [1]: suppresses LPS-induced DC-mediated antigen-specific T cell proliferation
DC IDO enzymatic activity (kynurenine) (DC IDO): promoted DC IDO enzymatic activity
AMPK activation (Thr-172 phospho-AMPK) (AMPK): suppressed AMPK activation
